# Experiment: soluble on expression in E. coli; label from the status in PepcDB or PDB records
row,Sequence,soluble on expression in E. coli
1,MGSDKIHHHHHHMDQFDRTPLMTADSEALATARRVLATEARALDSLATSLGDAFLKAVTLIEGAPGRVVVTGMGKSGHVARKIAATMASTGCPAFYVHPAEASHGDLGMVTRDDAVVALSNSGETPELSDVIAYTRRFEIPLIGITSRDGSTLAAASDVALVLPPNPEACPMGLAPTTSTTLMLALGDALAVTLLERKGFTAADFQVFHPGGKLGQRLLKVTDLMHGGDGLPLVGTEASMADVLLVMTAKSLGCAGVIDSGGKLAGVLTDGDLRRHMSPDLLTAKAAEVMTASPRTVPPNLLAAEALRQMNERSITSLFVVESDGRPVGVLHVHDCLRAGLA,not soluble
2,MGSDKIHHHHHHMKTLGERSKERRKIINLTQLQLSKKVGVSSVTISQWESGDTSPKGENLYKLAQALQCSPDWLMFGDSKNTKKPESNAEWAGGFDLWDNDSPLGEDEVEIPFYMDVELSAGEGIAEGVEYKGPKLRFAKSSLKRQGVNTDHAACVKVNGNSMEPVLPHGSTVGVDTSATEIVDGKMYAINHDGMMRVKMLYKLPGGGLRLRSYNTDEWPDEHINNEQLKNIKVIGKVFWYSVLL,not soluble
3,QFKVKSAFKKYSQVATQNGVTGAQAALRILQRGGLENVNVEMTSGMLSDHYDPRQKVLRLSEEVYSLPSIASVGVAAHEAGHALQDKVNYSPLAIRSAM,not soluble
4,MSSKFRTEDAWIIGQRMAARLDHEAYPLHKAAFFNDTHSIVQLLRAGRSLSEKDTHGNTALHIATMLGHREAIAILLANNAPVRIKNIDGWNPLMESVSYGDRQIITEMLRKLKTQTNEKMSRGKPHLMKMFQDLGDFYMEFKWDFQSWIPLLSRILPSDVCLIYKKGNLLRMDTTLADFSERNWERGDITFLFNVDAPPGEQLVVMDNKTKVFQRGRREESEAEIDEEVDVLMSTDIVNAHMSTKTVGFKQAYSGWVFKHAREEQMGDFPVNFYSVEGLKLTTRKRREHLTSDDVKKNKSILHSLTSGHTVNDDEFSVEPPTPKIATPTGRLPTTWEEYSGAAPGAPPQMGRPQIVKTNEKQFKALVGMSEEFPLSVDVLVDLLEVVAPFKHLDKLRRFCSARLPPGFPVCVEIPLLATIAAKVTFQKFQFTNDIQDKMFTIPTSYREDPTRFPDL,not soluble
5,GPGSMSKLISDAIAAEDASKWNTSYELYPPRSEKAEEDMMKVLVPNFMHQSPVFLDLTWGAGGRTSGTTMRLCKDLQHAHPDTPINMHITCTNTPKGLIKETLEFAKTHGIRNILALRGDPPSGEEFQVDPDGFACARDLVRYIRDTYGDYFCVSVAGYPEGHPSRIAENGTISHEDHQKELEYLKEKVDAGASFIITQLFYDASLYVKFVKRCREVGITVPILAGLLPITTYAGFVRMVSLCKTSVPSDVKKRVEELKENPDGLKEYGVEQCVQMIECIRASGLDYHHLHFYTLNNSAQIFKILKRLNALVE,soluble
6,MKDPLLNSLIYVSRYYGLANSPEALVNGLPLSDGKLTPFLLPRAAERAGLVAKENRAELEKISSLILPAILVLKGGDSCVLNSINMETREAEVTTLESGMVPISIPLEDLLEQYTGRYFLVKKQFRFDERSPEVLKTKEGHWFWSTLWQSKRIYRD,not soluble
7,GFIDTHLHVESSLVTPFEFDRCVTPRGITTAICDPHEIANVCGLEGIRYFLEASAHLVMDLRVQLSSCVPSTHMETAGAALEAKDLAPLMDHPRVIGLAEFMNFPGVLMKDPGCMAKLEAFRGRHIDGHAPLLRGKDLNGYIAAGIRTEHEATTAEEALEKLRKGMRVLIREGSVSKDLHALVSILTERHAPYLCLCTDDRNPLDIAEHGHIDHMIRTAIRLGAPPLAVYRAASLSAADAFGLKDRGLIAPGRRADIAVLD,not soluble
8,RVASNLDNKARVTELFNSAYSILTEVEKLAQEGKMSEPEAKALATRLMRNNLYKDNEYVYVADENMTFVATPLDPQLHDTSFHDFKDGKGNSVGR,not soluble
9,MTQWKNALSEGQLQQALELLIEAIKASPKDASLRSSFIELLCIDGDFERADEQLMQSIKLFPEYLPGASQLRHLVKAAQARKDFAQGAATAKVLGENEELTKSLVSFNLSMVSQDYEQVSELALQIEELRQEKGFLANDTSFSDVRDIDDRLGGYIELFSTAGNYFLVPIASINTLEIKSATSLLESVWRPVEFDIDGLGEGEGHMPMTYVDSESDAQKLGRETDWKQIADKEVYLGLGLKCWLVGEMALPISDLQNLQVIKELALEHHHHHH,soluble
10,MGSDKIHHHHHHMDIPWLVERDDRNERIVLSIKTNAKEALENAYRKKSRVTGKMIAYVHDSCANFFCEEGWLQEGAVSTYFHNGQANVFSFFLKEDRQNSDHERLHREVLSYVQKIERTLELSSHAVQRLNEADTDSLAQLYRHVFERYPTDVFSAQYLQQTMKEGAKFVGVKEGTDIICAASAVPNGFGGWEITDCATKKEARGNGYLSSVLCELEQWLWEEGEENVYSITRSHSFGMNVTIKKRGFSYEGTMVNNCIIGTGFEDMNIWTKRLTATNIC,not soluble
11,MSLSDQSQIIAGFTLWHLSLPVTARRDHGIGSVAGAVEVVVLRLQADSGAVGYGEASPWVVFTGSVEATYAALDRYLRPLVLGRAVGDHAAIMEDARAAVAHCTEAKAALDTALYDLRARIAGVPVWALLGGRCRDRIPLSCSIADPDFDKDLALMQRLQDDDVRIIKLKTGFKDHAFDMMRLERLRADFPAFDIRVDYNQGLHHDVALARVRDVATFKPTFIEQPVKAHLRGLMARIRDAVDVPLLADESIFGPEDMAEHPEIADGVSIKIMKSGGLTRAQTVARMAAARGLSAYGGDMFEAGLAHLAGAHMIAATPEITLGCEFYQATYFLCDDILAAPFPVADGHVLVPDTPGLGVDVDEDALARFAVAREGHHHHHH,soluble
12,MAHHHHHHMSFTEWPVSRVRQEFVDYFKKQGHTFVPSSPVCPHDDPTLLFINAGMNQFKALFLGTADPNTDFGRLKRAANSQMCIRAGGKHNDLEDVGRDTYHHTFFEMLGSWSFGDYFKKEAIQWAWELLTEVYKLPKDQLYVTYFEGDESNGLDPDLEAKELWGQLLPESQIVPGNAKDNFWEMGDTGPCGPCSEVHFDRIGRRNAASLVNKDDPMVVEIWNLVFMQFERRAGGFLTPLPQKHIDTGMGLERLTSILQGVKSNYDTDAWIPLFEAIQTATGYPKSYAEIRNDPDSDALVAYRVVADHIRCLTSAVGDGVMPDSVGRGFVLRRIIRRAVRYGVQFLGAKPGFFTQLVDSVCTSLGPFFPHLKEPRNIQRIKAVLADEEQSFAKTWEMGLKHFNHAVNECRANSSKVISGSEAFVLHDRYGFPVDLTCLLAEKDGMTVDLEGFNTEMKESKVSAGRVAATKTFIDAYQLEELKTRGIPQTNDAAKYVWEDYTGDVLAIFDKKNSKFISLLEPGNDLGAEGVGIILSTTNFYAESGGQVYDTGRLVAASDSVFEGRRRTTWPATWCTWATSASTLPPRSPRLRWCSCRWTTSAACRSRQTIPRPTS,not soluble
13,MGSDKIHHHHHHMEISDIIYGQHHIDGVLEELIKSAPVQRLKGIYQGGASFLVNRKWNVTRYEHSIGVMLLIKKLGGTIEEQIAGLLHDVSHTAFSHVVDVVFENQAEDYHENIFQQVIVHSEIPDILQKHGYHTEELLSDDSRWTLLEQPAPELCADRTDYTLRDMYRYGHINLHEAQTFLDHLIVRNGRMFPDSIEAAEWFVSVYYKEVIDFFLNPVNVYGYEYLARALKAALRHDVISAEDLLKTDQEVLNILRASKNEEVLSLLTSIHPGIQVIEDDIQYDFHQKKKMRLIDPSIFLDDKWIKSSGVSEKVRKMGEAAYQKAKKGVYIKILKQ,not soluble
14,MAHHHHHHMTQLHSVASLDYGDGRTCVCRICECGKHQCPGLRVPFVGETTYRDEYVGKSIERERPRKARQTVFPSKAEPGHFKTTKQEAADLLKGKDLRPAESYKPREAAAAPLPFEGTTTNRADFPGWMPDYNRTKRKEDPLPRLPGTYVTTKGAMEEPVRDLAEQGRLPKPPKSFKADDTLQNSLPFDGITNYTAEYQPKEVPMTRSAARDVQPVALPENRDFQTTVSAAYQVPPMHMRHDCPAAFVPMRPASRDGHIKLSVYNIPSGDTMY,not soluble
15,GPGSMKIGVVLGSGGHTSEMLRAITEIPLSYWLDTRPFYVVSATDPHSASLASQLEQQRFERRVVVYTIPRAREVGQSYLMSIITTIRATLACFRFVCTEKPDVLLTNGPGVCVPVIAAAVCVASCAPWWYGRPAIVYMESFTCVSHLSLTGSLLAPWLADVFTVHWRALERAVARRRRRGTLVYVGSETARVTDGAPHRLRSLAAEQEAYALVTVGSTKFSSLVQAVVQPGVCATLHQRFGIKRLYVQHGTAEVVAPPEATLLPALPMAAGADASHPTQQWSCGGLLVEAFPYRPCLDAVIRGATLVITHAGAGTILEGLQAQRPLVVVPNRQLMSDHQLDLAEALANGGFLFCVQVAELAERLPLLDLTTLRPHGGMDAAQLQEALRLVLTGHSASGERAKAD,not soluble
16,MRWAIVRFPGANCDEDARFALEKAGIRAEFVWHTERDLRGFDGVFLPGGFSYGDYLRAGALAAKSPVMEAVRRFAEEGRYVVGVCNGFQILTEAGLLPGALLANLNLHFTCKEVGVRVERNDLPFTRLYPRGQVLRLPIAHGEGRYYADPETLARLEGEGLVVFRYAPLKDEADYNPNGSLHDIAGIVSEKGNVLGMMPHPERAVDEVLGNTDGLPFFLGLVKEVAR,soluble
17,MSLRTNEHNFHNIEEEIKHVAVYLRLSRGEDESELDNHKTRLLNRCELNNWSYELYKEIGSGSTIDDRPVMQKLLTDVEKNLYDAVLVVDLDRLSRGNGTDNDRILYSMKVSETLIVVESPYQVLDANNESDEEIILFKGFFARFEFKQINKRMREGKKLAQSRGQWVNSVTPYGYIVNKTTKKLTPSEEEAKVVIMIKDFFFEGKSTSDIAWELNKRKIKPRRATEWRSSSIANILQNEVYVGNIVYNKSVGNKKPSKSKTRVTTPYRRLPEEEWRRVYNAHQPLYSKEEFDRIKQYFECNVKSHKGSEGHHHHHH,soluble
18,MGSDKIHHHHHHMNFEIPQSLIHPLLALIQAESPLARQLREHGVCHGNMVVSARLFDAQSLSSLYTLSKAQNERELLFQMLALDNIYNAPQARTIPGLEMLVAGLIAYLSRDAIDGWLYQRSRDGVLLPWLVQRIRHVEPEQGMPYVAIDMLANTMLSANSEQTDPTRRRSGMTTSIIVTRDEIVDRTIPELLAEFGFFKECAEFRREYEIHAQRFVRYQRSFGAQFIATRAGFTVEGKNTVALARIADGVTARCINDEERLERRFEMNCDAEFWRRAGVVSGFEKVPLHGYVHLFHLEWHQNIWVHVQHLSEYKYRPELRDKLVLPDHHRDLIDILTSHMDVLVQDFVPGKSGGTTILCQGAPGLGKTLTAEIYAEVVGKPLYRVHSGQLGTTAASVGATLMEILRRAMRWNAVLLLDEADVYIRRRDNDLEHNAIVAEFLRTLEYFSGLLFMTTNRTGDVDDAILSRCIATIQYETPCREDAARLWRLQADQCGVSLQDELVDALTAAYPKASGRDIKELMKLATRYSEAKQIALSEDVFRLCAQFRAIE,not soluble
19,MAASEAAVVSSPSLKTDTSPVLETAGTVAAMAATPSARAAAAVVAAAARTGSEARVSKAALATKLLSLSGVFAVHKPKGPTSAELLNRLKEKLLAEAGMPSPEWTKRKKQTLKIGHGGTLDSAARGVLVVGIGSGTKMLTSMLSGSKRYTAIGELGKATDTLDSTGRVTEEKPYDKITQEDIEGILQKFTGNIMQVPPLYSALKKDGQRLSTLMKRGEVVEAKPARPVTVYSISLQKFQPPFFTLDVECGGGFYIRSLVSDIGKELSSCANVLELTRTKQGPFTLEEHALPEDKWTIDDIAQSLEHCSSLFPAELALKKSKPESNEQVLSCEYITLNEPKREDDVIKTC,soluble
20,AHHHHHHGSKLTHVDEKGVKMVEVGHKKDMYRRAIAKGRIKLKPETIKLIREGKIEKGNVLAAAQIAGILAVKKTFDIIPLCHPIPLTGVDITFDFGEDYIEVTCEVRAIYKTGVEMEALTGVSVALLTIWDMVKAVEKDEKGQYPYTKIEEIRVVEKIKEERS,soluble

# From the DeepSol protein solubility set
